Measurements published in patent US20200207819A1 (SPIBER TECHNOLOGIES, published 2020).

T1: NTwt (wildtype N-terminal (NT) fragment of Euprosthenops australis major ampullate spidroin 1) (Euprosthenops australis)
T1 chain: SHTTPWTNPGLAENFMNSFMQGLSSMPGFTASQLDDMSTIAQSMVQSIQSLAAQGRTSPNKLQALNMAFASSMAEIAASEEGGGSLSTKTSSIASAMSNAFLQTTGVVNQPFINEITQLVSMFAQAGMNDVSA


What was measured:
[1] = molecular target: T1, NTwt (wildtype N-terminal (NT) fragment …); assay: tryptophan fluorescence ratio 339/351 nm vs pH, 5 µM protein in 20 mM HEPES/20 mM MES; homodimerization; conditions: remark: other sources report otherwise
[2] = molecular target: the molecule itself; assay: tryptophan fluorescence ratio 339/351 nm vs pH (self-association / dimerization)
Procedure: Fluorescence emission spectra for NT_{D40K/K65D} (SEQ ID NO: 2) and NTwt (SEQ ID NO: 11), respectively, were measured on a spectrofluorometer (Tecan Safire 2) using Costar® black polystyrene assay plates with 96 flat bottom wells. The proteins were diluted to a concentration of 5 μM in 20 mM HEPES/20 mM MES adjusted to pH 5.6-8.0 in steps of 0.4 pH units. After exciting the samples at 280 nm (5 nm bandwidth), emission spectra were recorded in 1 nm steps between 300-400 nm (10 nm bandwidth). The tryptophan fluorescence ratio was calculated from the intensities at 339 nm and 351 nm and plotted as a function of pH. […]
The pH-dependent monomer-dimer equilibrium of NT can be monitored through the fluorescence shift of a single tryptophan (Trp) residue that becomes more exposed in the dimer. FIG. 2 is a graph illustrating the monomer-dimer equilibrium measured with Trp fluorescence. Trp fluorescence spectra between 300 and 400 nm were measured in 20 mM HEPES/20 mM MES buffer and the ratio at 339/351 nm (wavelengths corresponding to monomer and dimer conformations, respectively) was calculated and plotted as a function of pH for NTwt (dotted line) and NT_{D40K/K65D} (filled line). The ratio of fluorescence at 339 and 351 nm as a function of pH gives a sigmoidal plot for NTwt with a pKa of dimerization at pH 6.5. […]

| Binder | pKa of dimerization [1] [pH] | binding result [2] |
| --- | --- | --- |
| NTwt (wildtype N-terminal (NT) fragment of Euprosthenops australis major ampullate spidroin 1) (protein) SHTTPWTNPGLAENFMNSFMQGLSSMPGFTASQLDDMSTIAQSMVQSIQSLAAQGRTSPNKLQALNMAFASSMAEIAASEEGGGSLSTKTSSIASAMSNAFLQTTGVVNQPFINEITQLVSMFAQAGMNDVSA | 6.5 | – |
| NTD40K/K65D (charge-reversed double mutant of the NT fragment) (other, Expressed in E. coli BL21 (DE3); also called charge-reversed NT mutant; NT mutant) SHTTPWTNPGLAENFMNSFMQGLSSMPGFTASQLDKMSTIAQSMVQSIQSLAAQGRTSPNDLQALNMAFASSMAEIAASEEGGGSLSTKTSSIASAMSNAFLQTTGVVNQPFINEITQLVSMFAQAGMNDVSA | – | no binding (tested: 5 µM protein, pH 5.6-8.0) |
